# Results as given in the supplement of paper PMC7125110.
# ± gives the standard error. Fewer inactive variants are shown than the library holds.
# B1: glmS ribozyme (parent)
# chain: AUAAAAGCGCCAGAACUACAGAAAUGUAGUUGACGAGGAGGAGGUUUAUCGAAUUUUCGGCGGAUGCCUCCAAA
# How the values were obtained:
# Settings in all cases: with glucosamine-6-phosphate
# glucosamine-6-phosphate [1] = variants of: B1; test: self-cleavage kobs at 160 uM GlcN6P; higher = faster cleavage; RNA array
# How it was run: (§1)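 E. coli RNA polymerase transcribed barcoded ribozyme variants in situ on sequenced MiSeq chips, which were tracked via a hybridised Cy3 probe at 37 °C. Tiles were imaged over ~14 h after glucosamine-6-phosphate (40 μM to 10 mM) in HEPES/KCl/Mg(OAc)2 buffer was flowed in. Normalised per-tile medians were fit to one- or two-exponential decays for kobs, and kcat and KM came from weighted Michaelis–Menten fits.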
# glucosamine-6-phosphate [2] = variants of: B1; test: self-cleavage kobs at 640 uM GlcN6P; higher = faster cleavage; RNA array
# How it was run: as §1
# glucosamine-6-phosphate [3] = variants of: B1; test: self-cleavage kobs at 2500 uM GlcN6P; higher = faster cleavage; RNA array
# How it was run: as §1
# glucosamine-6-phosphate [4] = variants of: B1; test: self-cleavage kobs at 10000 uM GlcN6P; higher = faster cleavage; RNA array
# How it was run: as §1
Variant,self-cleavage kobs at 160 uM GlcN6P (glucosamine-6-phosphate [1]),self-cleavage kobs at 640 uM GlcN6P (glucosamine-6-phosphate [2]),self-cleavage kobs at 2500 uM GlcN6P (glucosamine-6-phosphate [3]),self-cleavage kobs at 10000 uM GlcN6P (glucosamine-6-phosphate [4])
A33C G35A,< 1e-05 s⁻¹,< 1e-05 s⁻¹,< 1e-05 s⁻¹,< 1e-05 s⁻¹
A12C G59A G63C,< 1e-05 s⁻¹,< 1e-05 s⁻¹,,
U30A A48C C67G,< 1e-05 s⁻¹,,,
C10G U46A U55C,< 1e-05 s⁻¹,,< 1e-05 s⁻¹,
A15U U30G U46G C67G,5.03e-05 ± 1.7e-05 s⁻¹,6.26e-05 ± 1.3e-05 s⁻¹,0.000146 ± 2.2e-05 s⁻¹,
U31A G51A,< 1e-05 s⁻¹,< 1e-05 s⁻¹,< 1e-05 s⁻¹,< 1e-05 s⁻¹
A15C G32C A48C,< 1e-05 s⁻¹,,,
G32C A39C U45A U56G,< 1e-05 s⁻¹,,,
G60A C68G,8.43e-05 ± 3.9e-05 s⁻¹,7.21e-05 ± 1.6e-05 s⁻¹,6.95e-05 ± 2.5e-05 s⁻¹,
A14C G29U C50U A52G C58G,0.000474 ± 0.00018 s⁻¹,,7.98e-05 ± 3.9e-05 s⁻¹,
U30C U46G U54A,< 1e-05 s⁻¹,,,
A33G U47G A48C G51C,< 1e-05 s⁻¹,,,
G35U C61U,< 1e-05 s⁻¹,< 1e-05 s⁻¹,< 1e-05 s⁻¹,
G29C C61U C71U,< 1e-05 s⁻¹,,,
A6C G7C A33C C50G A52C U65C,< 1e-05 s⁻¹,,,
A36U A48G,< 1e-05 s⁻¹,< 1e-05 s⁻¹,,< 1e-05 s⁻¹
U46C C58U C67A,< 1e-05 s⁻¹,,,
G35U A53U G60U,< 1e-05 s⁻¹,< 1e-05 s⁻¹,,
G32U A52U,< 1e-05 s⁻¹,< 1e-05 s⁻¹,< 1e-05 s⁻¹,

Variant,self-cleavage kobs at 160 uM GlcN6P (glucosamine-6-phosphate [1]),self-cleavage kobs at 640 uM GlcN6P (glucosamine-6-phosphate [2]),self-cleavage kobs at 2500 uM GlcN6P (glucosamine-6-phosphate [3]),self-cleavage kobs at 10000 uM GlcN6P (glucosamine-6-phosphate [4])
G7U C71U,< 1e-05 s⁻¹,,,< 1e-05 s⁻¹
G38U A42U,< 1e-05 s⁻¹,< 1e-05 s⁻¹,,< 1e-05 s⁻¹
U56C U57G C58A,0.00183 ± 0.0009 s⁻¹,,,
C8G G40U C61A C71U,< 1e-05 s⁻¹,,,
U30G U57C G62C,< 1e-05 s⁻¹,< 1e-05 s⁻¹,,
G26A C70A,0.000106 ± 2.6e-05 s⁻¹,,,
G32C G63U,< 1e-05 s⁻¹,< 1e-05 s⁻¹,,
G44U C58A C71A,< 1e-05 s⁻¹,< 1e-05 s⁻¹,< 1e-05 s⁻¹,
G29A U46A A53U U56C,< 1e-05 s⁻¹,< 1e-05 s⁻¹,,
U56A G60C,< 1e-05 s⁻¹,< 1e-05 s⁻¹,< 1e-05 s⁻¹,
C58U G63A,< 1e-05 s⁻¹,,,< 1e-05 s⁻¹
C10A U55A C67G,6.55e-05 ± 3e-05 s⁻¹,0.000418 ± 0.00019 s⁻¹,,
G7U U47A A52C A53U U55G C61U,< 1e-05 s⁻¹,< 1e-05 s⁻¹,< 1e-05 s⁻¹,
C8G C11G G43A,< 1e-05 s⁻¹,< 1e-05 s⁻¹,< 1e-05 s⁻¹,
C11G A12C A52C G59U G66A C67G,< 1e-05 s⁻¹,< 1e-05 s⁻¹,< 1e-05 s⁻¹,
C8G G59A C71G,< 1e-05 s⁻¹,,,
U30G C50G C58G G60U C61G,0.000251 ± 7.4e-05 s⁻¹,0.00014 ± 2.9e-05 s⁻¹,0.00022 ± 6.9e-05 s⁻¹,
G51U G62U A64C,< 1e-05 s⁻¹,,,
A33C A39C A52U C70U,< 1e-05 s⁻¹,< 1e-05 s⁻¹,,

Variant,self-cleavage kobs at 160 uM GlcN6P (glucosamine-6-phosphate [1]),self-cleavage kobs at 640 uM GlcN6P (glucosamine-6-phosphate [2]),self-cleavage kobs at 2500 uM GlcN6P (glucosamine-6-phosphate [3]),self-cleavage kobs at 10000 uM GlcN6P (glucosamine-6-phosphate [4])
A6G C50G U54C,5.66e-05 ± 2e-05 s⁻¹,5.17e-05 ± 2.4e-05 s⁻¹,,
G13A U46G A48G G59A,< 1e-05 s⁻¹,,< 1e-05 s⁻¹,< 1e-05 s⁻¹
G9C G40A,< 1e-05 s⁻¹,< 1e-05 s⁻¹,< 1e-05 s⁻¹,< 1e-05 s⁻¹
A14U G43A G63U C68U,< 1e-05 s⁻¹,,< 1e-05 s⁻¹,
A14C G29A U56C U57G,< 1e-05 s⁻¹,< 1e-05 s⁻¹,,
U30C A36G U57C,< 1e-05 s⁻¹,< 1e-05 s⁻¹,< 1e-05 s⁻¹,
G13A G43C G66A,< 1e-05 s⁻¹,,< 1e-05 s⁻¹,< 1e-05 s⁻¹
C10U C11G A33U,< 1e-05 s⁻¹,< 1e-05 s⁻¹,< 1e-05 s⁻¹,< 1e-05 s⁻¹
G13C A14C U55G G59U,< 1e-05 s⁻¹,< 1e-05 s⁻¹,,
G9C U45A U47C C68G,< 1e-05 s⁻¹,< 1e-05 s⁻¹,< 1e-05 s⁻¹,
C11A U46G,< 1e-05 s⁻¹,< 1e-05 s⁻¹,,4.72e-05 ± 2.1e-05 s⁻¹
C8U A15U U31G,< 1e-05 s⁻¹,< 1e-05 s⁻¹,,
G13C A14C G51A G66U,< 1e-05 s⁻¹,,< 1e-05 s⁻¹,
A6U U45A A53C,< 1e-05 s⁻¹,4.01e-05 ± 1.9e-05 s⁻¹,4.74e-05 ± 2.2e-05 s⁻¹,
G38U G43U U65C,< 1e-05 s⁻¹,,,
A14G U45G A53U,0.000618 ± 0.00016 s⁻¹,0.00262 ± 0.00057 s⁻¹,0.00337 ± 0.0012 s⁻¹,
A12U A15G G41A,0.000272 ± 4.5e-05 s⁻¹,0.00098 ± 0.00018 s⁻¹,,
A12G G32A C67G C68U,0.000534 ± 0.00025 s⁻¹,,,
